test: soluble on expression in E. coli; label from the status in PepcDB or PDB records

| Sequence | soluble on expression in E. coli |
| --- | --- |
| SLLIVYNEYLIHIYHSFQWAELQCETDSCIKMLLVADPQILGNTFDTKLYWPLANFDSDRHLKRTYKSVVQHAAPDVICFLGDLMDEGSVANDDQFAAYFTRFVNIFSQPTANTIMFYIPGDNDIGGEGLETIKSDRVLRFKQYFNEQDELTIDPMLRILNVNRISMTLPMNSAPSTEEPQPYTVLLSHMPILRWSDPFTYKVIDDFQPNVIFSAHEHKSRHVKTHRNQLTQGAPFEPLNTERSNRHEVVEFDLNYLKDTRELLEFIVPTCSYRMGEMKIGYGYAMFDGDKLRYTVLWTSQRFYQ | soluble |
| SLGELFAVFNEKLTIPEQEALMFLYAYMPTGDVTDYTGDYYLENVRLSDQARREMPWGKEIPDDVFRHFVLPIRVNNENLDDSRRVFYNELKDRVKNLSLHDAVLEVNHWCHEKVIYTPSDARTSAPLASVKTAYGRCGEESTFTVAALRSVGIPARQVYTPRWAHTDDNHAWVEAWVDGKWYFFGACEPEPVLNLGWFNAPASRGMLMHTKVFGRYTGQEEIMYETPNYTEINVIDNYAPTAKGSVLVTDAEGQPVADATVEFKVYNYAEFYTVATKHTDRSGHASLTAGKGDMLVWASKDGRFGYSKLSFGKDNELKITLDKNASETYSLPLDIVPPAEGANLPEVTPEQRTENDRRMAQEDSIRNAYVATFITEEQARTFAKENKLDETETVRLLIASRGNHQTLTDFLSDAVKADKAGQAISLLKVVSAKDLRDVSPEVLNDHLNNSGLPASEDFCSNVLNPRVANEMITPYKAFFRKEIPASEAEAFRKNPQALVEWCKKEITINNELNSQRIPMSPMGVWKARVADEKSRNIFFVSMARSLGIPAWIDEVTGKIQYRTFNDNNLKNGKVYDVDFEAAQQTQAPTGTLVARYRPIPSLSDPKYYSHFTLSKFRNGTFQLLNYDEGDVDMGGGATWSNLLKNGARLDTGYYMMVTGTRMASGAVLANVTFFTIEEGKTTTVDLVMRESKDQVQVIGNFNSESTYLPIGTSEPQSILQTCGRGYYVVAVLGAGQEPTNHALRDIAALSGEFEKWGRKMVLLFPSEEQYKKFRPSEFPGLPSTITYGIDVDGAIQKQIAESMKLPNSTILPMFIIGDTFNRVVFVSQGYTIGLGEQLMKVIHGEG | soluble |
| MDGSMGEGGGQILRTAVALAAVLGRPLRIVNIRAKRRPPGLRPQHLTAVRAVAAISGGRLRGAEVGSTSLEFTPGRVRGGRYRFDVGTAGSVALIIQALAPLLAYSDSPVEVELTGGTDVPMAPTIDYMREVFASILAMLGYEIEIRVLRRGHYPRGGGRVVVRVPDPPGGFRARSFVERGPLKGVYVRSHAVKLPGSIAERQARSAASLVRERLGVDPIVEIEAYKPHRDPHLGPGTGVLVWAVFGETVMGGDSIGKKGKPAEVVGREAAESLLEDMATGAALDRHMSDMAPVYLALAGGVSTVFGARLTGHASTILELLRIMVDGFEYRILEGGLERPFKAELRGAGVSPR | soluble |
| MIAELHIADDETAVKVLHLQRRAYTIEAQIIGSKALPPLHDTIASLQRCGERFFGYFQGERLVGAIACKRNGKTLRLCRLMVDPDCFRQGIASALLDFVIKQEPSISEIVVTTGSGNAPAIRFYERHGFRAIERIETPERIELTKLVKRSG | not soluble |
| MRGSHHHHHHTDPALRASSNTFTLGTKSVNRLGYGAMQLAGPGVFGPPRDRHVAITVLREALALGVNHIDTSDFYGPHVTNQIIREALYPYSDDLTIVTKIGARRGEDASWLPAFSPAELQKAVHDNLRNLGLDVLDVVNLRVMMGDGHGPAEGSIEASLTVLAEMQQQGLVKHIGLSNVTPTQVAEARKIAEIVCVQNEYNIAHRADDAMIDALAHDGIAYVPFFPLGGFTPLQSSTLSDVAASLGATPMQVALAWLLQRSPNILLIPGTSSVAHLRENMAAEKLHLSEEVLSTLDGISREGLCGR | soluble |
| MSLQSLIGLMRPETGKKLENLNHFIQQFEKVLIAFSGGVDSSTLAAVCSNAGVEVLAVTVLSSVSPRREMEEAKRIAEELGVRHEFLKIDLMDEDFRRNDENRCYYCKRRVLSALVEEAKKRGIEVVLEGTNASDLSDHRPGYRAVRELDGVNSPWVEFGITKEEIREIARSMGYSFHDKPSMACLASRIPFGIEIDEEKLKMVDEAEEAVIELAGVKQVRVRNYDGVAVVEVAGDELRKLLNCAEKVRDKLKKIGFRAVLIDLEGYRSGKRLFKFEGHHHHHH | soluble |
| MGSDKIHHHHHHACILFVCFLYTNNEIGVTSSKLEADIRSSQKIKDDWTVDGSVSSTMAAYISYPQDLSDHSFSVYVNRPGLSFGYFFRGGGTLSGIQRGIVEFTVEGYNERAFISMNQQQVQQLEIDDGNTIQVVDIDRNKPFAIVLPINAGNITFYDVNRNTVEYWNNPL | not soluble |
| ANVEIYTKETCPYCHRAKALLSSKGVSFQELPIDGNAAKREEMIKRSGRTTVPQIFIDAQHIGGYDDLYALDARGGLDPLLK | soluble |
| MGSDKIHHHHHHMKIVKNFRDINTLIPGWGDKMSEVSIFDIWKGTKFGESVLMEFDSLSFSPLGVYSLAYWARMKGFKVSVVDVLDTLKIYLSYAKMIGLGTSIANDIEVIKLGGRIDSGNVSTRIPITEEKVMEKELMKLYPHEDNEKTIVIVLGIEKFLALWCKLLPDILSFLNFMLSFVGEEWMKSFYFINVDLMKDFSFPALSMLEELSTTVVEISKRGPVLHYIVRKALNPEIDSLEGEIHIKELISEIENPIES | not soluble |
| MSQLINLPMDQILYLSTSDIKHHVHLQTIHTLMDIRANLADFKKIHKKLYPCHRSYIVNTDMIISVNKTNYEATLINGQVLPVSRMKIGKIAQIVEERGRLEHHHHHH | not soluble |
| MSLKKYLGIIVDAVSRRQFKGEITVENGKILRVEEKEHDHERYILPGLVDAHVHIESSMTVPSVFARMAVAKGTVAVVSDPHEIANVMGEEGIDFMLGDSKRSPLKVFFGVPSCVPATPFESAGSVLDAEAVDRLLAREDLYYLSEMMNFPGVVLGFPDVMAKLESAKKCGKVIDGHAPGLRGADLETYIGVGISTDHESFTYEEAVEKIKLGMKILIREGSSARNFETLYSLIDEYPEAVMLCTDDSHPDTLIYEGHIDKLIRRGQEKGLDIFNLIRAAVINPVEHYGLNVGLLREGDPADFITVDDLKSFNVLSTFIDGECVYENGEGHHHHHH | soluble |
| MKKPPLNICILRLSAIGDVCHTLAVIQAIQRQYPDIKISWIIGKTEAHLMQGIHNVELIPYDKKSGWQGIITLWKQLRNKRFDFLLNMQTALRASMLSLGIKATHKIGFNKDRAREMQSLFVDSQVEMTASPHVLDGQMMFAKAIGVTDLTPRWHLPVSSADLAYSNQFLNPHTQNVVIAPCSSKTEKDWDIASNAEIAKWLTDQNINVIIVGSPTDYECATANQIKQLAPKVINTTGKTTLKQLAALIKQVDLVIAPDTGVAHIATTQHTRVIGLYAIHNPRRTAPYSDQANVISVYDQAILDYYGTSWDKLAWATKAKSKKGEKLMQRITVEEVKQKIVETLNLKL | not soluble |
| SNAMIRNIVFDLGGVLIHLNREESIRRFKAIGVADIEEMLDPYLQKGLFLDLESGRKSEEEFRTELSRYIGKELTYQQVYDALLGFLEEISAEKFDYIDSLRPDYRLFLLSNTNPYVLDLAMSPRFLPSGRTLDSFFDKVYASCQMGKYKPNEDIFLEMIADSGMKPEETLFIDDGPANVATAERLGFHTYCPDNGENWIPAITRLLREQK | soluble |
| MRLAVLIDADNAKADAISDLLAEVSKFGVATVKRAYGDWTTTNLQGWKKQLHKYAIQPMQQFSYTRGKNSTDASMIIDGMDLLYTGNFDGFCIVSSDCDFTRLATRFREAGLSVYGFGEKKTPEPFVAACDRFIFTEILGKGETQEKPAATGKADESAASKELLKLLRKAVAAVSGEDGWASLSNLGSHISKIRPSFDSRNYGYSKLSTLVKNLDIFETRMVPSADKLHTDVFLRLKDGKLEHHHHHH | not soluble |
| MGRNRIKKVTERLPLPPNARRVEDPEMNMSREVVEDPGVPGTQDVTFAVAEVNGVETGRLPVANVVVTPAHEAVVRVGTKPGTEVPPVIDGSIWDAIAGCEAGGNWAINTGNGYYGGVQFDQGTWEANGGLRYAPRADLATREEQIAVAEVTRLRQGWGAWPVCAARAGAR | soluble |
| MAEPLLVVGLGNPGANYARTRHNLGFVVADLLAARLGAKFKAHKRSGAEVATGRSAGRSLVLAKPRCYMNESGRQIGPLAKFYSVAPANIIVIHDDLDLEFGRIRLKIGGGEGGHNGLRSVVAALGTKDFQRVRIGIGRPPGRKDPAAFVLENFTPAERAEVPTICEQAADATELLIEQGMEPAQNRVHAWKLAAALEHHHHHH | soluble |
| MTTNEEFIRTQIFGTVFEITNRYNDLNPVGMGAFGLVCSATDTLTSQPVAIKKIMKPFSTAVLAKRTYRELKLLKHLRHENLICLQDIFLSPLEDIYFVTELQGTDLHRLLQTRPLEKQFVQYFLYQILRGLKYVHSAGVIHRDLKPSNILINENCDLKICDFGLARIQDPQMTGYVSTRYYRAPEIMLTWQKYDVEVDIWSAGCIFAEMIEGKPLFPGKDHVHQFSIITDLLGSPPKDVINTICSENTLKFVTSLPHRDPIPFSERFKTVEPDAVDLLEKMLVFDPKKRITAADALAHPYSAPYHDPTDEPVADAKFDWHFNDADLPVDTWRVMMYSEILDFHKIGGSDGQIDISATFDDQVAAATAAAAQAQAQAQAQVQLNMAAHSHNGAGTTGNDHSDIAGGNKVSDHVAANDTITDYGNQAIQYANEFQQ | soluble |
| MGSDKIHHHHHHSDAGKDRRKKQKQKERQEDDDNNDEPAGGSEMGESGKAKDEKERTSVLEKQAGKKGDDESSSSEEDKEDEDEKKDNSTVIIREENEIIKAEKELDEEKVDQFRQSRVLRFTRSADEARVLPTDAAKFKRDTITQTLKSKELNDGVQLPLDKKPTATASTN | not soluble |
| SNYLDQMEEYDKVEEISRKHKHNCFCIQEVVSGLRQPVGALHSGDGSQRLFILEKEGYVKILTPEGEIFKEPYLDIHKLVQSGIKGGDERGLLSLAFHPNYKKNGKLYVSYTTNQERWAIGPHDHILRVVEYTVSRKNPHQVDLRTARVFLEVAELHRKHLGGQLLFGPDGFLYIILGDGMITLDDMEEMDGLSDFTGSVLRLDVDTDMCNVPYSIPRSNPHFNSTNQPPEVFAHGLHDPGRCAVDRHPTDININLTILCSDSNGKNRSSARILQIIKGKDYESEPSLLEFKPFSNGPLVGGFVYRGCQSERLYGSYVFGDRNGNFLTLQQSPVTKQWQEKPLCLGTSGSCRGYFSGHILGFGEDELGEVYILSSSKSMTQTHNGKLYKIVDPKRPLMPEECRATVQPAQTLTSECSRLCRNGYCTPTGKCCCSPGWEGDFCRTAKCEPACRHGGVCVRPNKCLCKKGYLGPQCEHHHHHH | soluble |
